In PMC3338619, “Ligand Binding Study of Human PEBP1/RKIP: Interaction with Nucleotides and Raf-1 Peptides Evidenced by NMR and Mass Spectrometry” (PLoS ONE, 2012) one finds Kd data, which are given here for 1 molecule.

Square brackets hold non-standard residues; d marks the D form. Ends that are not written are not given here. pY = N[C@@H](Cc1ccc(OP(=O)(O)O)cc1)C(=O)O; pS = N[C@@H](COP(=O)(O)O)C(=O)O

The target in assay [1] is T1, Human Phosphatidylethanolamine binding protein 1 (hPEBP1) (human, UniProt P30086 1-187).
T1 construct: the NMR assignment counts 187 residues in all, from Met1 to Lys187; The NMR samples were uniformly 15N-labelled; also called RKIP; source: E. coli BL21 (DE3), pET31b, purified (anion exchange, cation exchange); 15N-labelled for NMR, non-labelled recombinant for mass spectrometry
T1 sequence (P30086 whole entry): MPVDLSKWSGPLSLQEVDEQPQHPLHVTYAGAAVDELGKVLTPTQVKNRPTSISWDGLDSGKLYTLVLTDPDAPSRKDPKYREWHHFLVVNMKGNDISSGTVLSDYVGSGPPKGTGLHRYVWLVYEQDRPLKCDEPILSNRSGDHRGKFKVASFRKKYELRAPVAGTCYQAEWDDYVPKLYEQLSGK
In words: native MS; hPEBP1 incubated with a range of peptide concentrations, bound protein fraction measured by ESI-MS; ammonium bicarbonate (ABC), pH 7.4, 25°C. As to conditions: both partners purified.

The target in assay [2] is T1, Human Phosphatidylethanolamine binding …. In words: native MS; hPEBP1 incubated with a range of peptide concentrations, bound protein fraction measured by ESI-MS; ammonium acetate 20 mM, pH 6.6, 20°C. As to conditions: both partners purified.

B1: tri-phosphorylated Raf-1 peptide (residues 331-349) (peptide)
peptide: RPRGQRD[pS][pS]Y[pY]WEIEASEV
notes: Raf-1 N-region, residues 331-349; three phospho-amino acids at Ser338, Ser339 and Tyr341; also called 3P; Raf-1 peptide; Raf-1 peptide in tri-phosphorylated form; source: synthetic peptide (solid-phase, Fmoc strategy)
Take B1: the dissociation constant Kd – broadly, the constant that tells how readily two partners part at equilibrium – in assay [1] came to 11 ± 3 µM; in assay [2], 45 ± 12 µM.
